Measurements: paper PMC7948958

Key:
[1] = molecular target: rabbit skeletal actin filaments (rabbit) (UniProt P68135)
[2] = molecular target: pyrene-labeled rabbit skeletal actin filaments (rabbit) (UniProt P68135); test: other fluorescence titration; stopped-flow, quenching of pyrene-actin fluorescence; 0.05-0.3 μM EGFP-M15-2IQ mixed with 0.5-3 μM pyrene actin; with saturating ADP (0.5 mM in the text, 1 mM in the legend), apyrase omitted; apparent rate constants from linear fit of kobs against [actin], KD …; 20-mM Mops (pH 7.0), 100-mM KCl, 5-mM MgCl2, 0.1-mM EGTA, 20 °C
[3] = molecular target: rabbit skeletal actin filaments (rabbit) (UniProt P68135); remark: listed apart in the source
[4] = molecular target: pyrene-labeled rabbit skeletal actin filaments (rabbit) (UniProt P68135); test: other fluorescence titration; stopped-flow, quenching of pyrene-actin fluorescence; 0.05-0.3 μM EGFP-M15-2IQ mixed with 0.5-3 μM pyrene actin; nucleotide-free (apyrase-treated); apparent rate constants from linear fit of kobs against [actin], KD calculated as k-6/k+6; 20-mM Mops (pH 7.0), 100-mM KCl, 5-mM MgCl2, 0.1-mM EGTA, 20 °C

Row | Substance | actin-activated phosphate release (double-mixing stopped flow, MDCC-PbP), apparent association rate constant K9·k′+4 of M·ADP·Pi with actin, from the fast phase against [actin] up to 50 μM [1] [M⁻¹ s⁻¹] | Kd [2] [nM] | koff [2] [s⁻¹] | kon [2] [M⁻¹ s⁻¹] | actin-activated steady-state ATPase (NADH assay, 10-mM KCl, 20 °C), K ATPase; myosin from Sf9 coexpressing UNC45A (baculovirus) [3] [mM] | actin-activated steady-state ATPase (NADH assay, 10-mM KCl, 20 °C), K ATPase; myosin from Sf9 coexpressing UNC45B (baculovirus) [3] [mM] | Kd [4] [nM] | koff [4] [s⁻¹] | kon [4] [M⁻¹ s⁻¹] | actin-activated steady-state ATPase (NADH assay, 10-mM KCl, 20 °C), K ATPase; myosin from the Sf9-UNC45A cell line [3] [mM] | actin-activated steady-state ATPase (NADH assay, 10-mM KCl, 20 °C), K ATPase; myosin from the Sf9-UNC45B cell line [3] [mM]
1 | EGFP-M15-2IQ motor domain complex (EGFP-M15-2IQ:ELC:RLC) (from UniProt Q9QZZ4-3 1-743; P60661 1-151) | 130000 | 310 | 0.55 | 1.75e+06 | 0.0061 | 0.0104 | 200 | 0.65 | 3.18e+06 | – | –
2 | M15-2IQ-EGFP motor domain complex (M15-2IQ-EGFP:ELC:RLC) (from UniProt Q9QZZ4-3 1-743; P60661 1-151) | – | – | – | – | – | – | – | – | – | 0.0052 | 0.007
